What was measured:
[1] = biological target: SARS-CoV-2 WA1 spike (S) protein (SARS-CoV-2) (UniProt P0DTC2); test: cell-based or functional assay
[2] = biological target: SARS-CoV-2 spike (S) protein, WA1 (SARS-CoV-2) (UniProt P0DTC2); test: cell-based or functional assay

Row | Substance | pseudovirus neutralization IC50 [1] [µg/mL] | IC50, pseudovirus neutralization [2] [nM] | IC80, pseudovirus neutralization [2] [nM] | neutralization IC50 [2] [nM] | neutralization IC80 [2] [nM]
1 | AZD3152 (antibody) | 0.161 | 1.08 | 2.2 |  | 
2 | ADG20 (antibody) |  |  |  | 0.047 | 0.197
